Data taken from US20250243286A1 (SIXPEAKS BIO, published 2025).

T1: human ActRIIB (human, UniProt Q13705 19-137, limits assumed)
T1 construct: antigen in MSD-SET; also called ACVR2B; ActR2B
T1 sequence: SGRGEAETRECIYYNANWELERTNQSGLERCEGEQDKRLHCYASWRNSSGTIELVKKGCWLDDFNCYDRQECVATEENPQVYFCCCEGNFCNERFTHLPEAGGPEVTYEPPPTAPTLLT


What was measured:
human ActRIIA [1] = target: T2, human ActRIIA (human, UniProt P27037 20-135, limits assumed); test: MSD-SET
T2 construct: antigen in MSD-SET; also called ACVR2A; ActR2A

human ActRIIB [2] = target: T1, human ActRIIB; test: MSD-SET
[3] = target: ActRIIA and ActRIIB (on TGFB/SMAD SBE Reporter HEK293 cells) (human); test: cell-based or functional assay
human ActRIIA [4] = target: T2, human ActRIIA; test: MSD-SET; remark: listed apart in the source
human ActRIIB [5] = target: T1, human ActRIIB; test: MSD-SET; remark: listed apart in the source
human ActRIIA [6] = target: T2, human ActRIIA; test: MSD-SET, preliminary
human ActRIIB [7] = target: T1, human ActRIIB; test: MSD-SET, preliminary

T2 sequence (P27037 20-135 limits assumed): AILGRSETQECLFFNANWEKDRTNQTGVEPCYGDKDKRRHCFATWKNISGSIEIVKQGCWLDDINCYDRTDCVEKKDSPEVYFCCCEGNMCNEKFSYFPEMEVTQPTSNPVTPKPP

| Kd (human ActRIIA [1]) [nM] | Kd (human ActRIIB [2]) [nM] | Kd (human ActRIIA [4]) [nM] | Kd (human ActRIIB [5]) [nM] | Kd (human ActRIIA [6]) [nM] | Kd (human ActRIIB [7]) [nM] | Binder | also measured |
| --- | --- | --- | --- | --- | --- | --- | --- |
| 0.025 | 0.006 | – | – | – | – | Soidawürstle, Human IgG1-PALALA (antibody, V domains shown, human IgG1 with PA-LALA (L234A/L235A/P329A), EU numbering) VH: QVQLVQSGAEVRKPGSSVKVSCKASGYTFTSSYINWVRQAPGQGLEWMGTINPVSGSTSYAQKFQGRVTITADTSTSTAYMELSSLRSEDTAVYYCARGGWFDYWGQGTLVTVSS VL: QSALTQPRSVSGSPGQSVTISCTGTSSDVGSYNRVNWYQQHPGKAPKLMIYGVSKRESGVPDRFSGSKSGNTASLTISGLQAEDEADYYCGTFAGGRYYGVFGGGTKLTVL | – |
| 0.039 | 0.016 | – | – | – | – | Schwardamaga, Mouse IgG2a-PALALA (antibody, V domains shown, mouse IgG2a constant region with PALALA) VH: QVQLVQSGAEVKKPGSSVKVSCKASGYTFTSSYINWVRQAPGQGLEWMGTINAVSGSTSYAQKFQGRVTITADTSTSTAYMELSSLRSEDTAVYYCARGGWFDYWGQGTLVTVSS VL: QSALTQPRSVSGSPGQSVTISCTGTSSDVGSANYVNWYQQHPGKAPKPMIYGVSRRPSGVPDRFSGSKSGNTASLTISGLQAEDEADYYCGTFAGGKYYGVFGGGTKLTVL | – |
| 0.034 | 0.005 | – | – | – | – | Soidawürstle, Human IgG1-PALALA-YTE (antibody, V domains shown, human IgG1 with PA-LALA (L234A/L235A/P329A) and YTE (M252Y/S254T/T256E), EU numbering) VH: QVQLVQSGAEVRKPGSSVKVSCKASGYTFTSSYINWVRQAPGQGLEWMGTINPVSGSTSYAQKFQGRVTITADTSTSTAYMELSSLRSEDTAVYYCARGGWFDYWGQGTLVTVSS VL: QSALTQPRSVSGSPGQSVTISCTGTSSDVGSYNRVNWYQQHPGKAPKLMIYGVSKRESGVPDRFSGSKSGNTASLTISGLQAEDEADYYCGTFAGGRYYGVFGGGTKLTVL | – |
| – | – | 0.112 | 0.0638 | 0.112 | 0.0638 | Antibody Bäradreck (antibody, V domains shown, full-length IgG) VH: QVQLVQSGAEVKKPGSSVKVSCKASGYTFTSSYINWVRQAPGQGLEWMGTINPVSGSTSYAQKFQGRVTITADTSTSTAYMELSSLRSEDTAVYYCARGGWFDYWGQGTLVTVSS VL: QSALTQPRSVSGSPGQSVTISCTGTSSDVGSYNYVNWYQQHPGKAPKLMIYGVSKRPSGVPDRFSGSKSGNTASLTISGLQAEDEADYYCGTFAGGSYYGVFGGGTKLTVL | IC50, Activin SMAD RGA [3]: 0.257 nM; IC50, Myostatin SMAD RGA [3]: 0.255 nM; IC50, myostatin inhibition (SMAD RGA) [3]: 0.255 nM; IC90, Activin SMAD RGA [3]: 4.99 nM; IC90, Myostatin SMAD RGA [3]: 4.05 nM |
| – | – | 0.655 | 0.0014 | 0.655 | 0.0563 | Bäradreck Fab (Fab, V domains shown, Fab) VH: QVQLVQSGAEVKKPGSSVKVSCKASGYTFTSSYINWVRQAPGQGLEWMGTINPVSGSTSYAQKFQGRVTITADTSTSTAYMELSSLRSEDTAVYYCARGGWFDYWGQGTLVTVSS VL: QSALTQPRSVSGSPGQSVTISCTGTSSDVGSYNYVNWYQQHPGKAPKLMIYGVSKRPSGVPDRFSGSKSGNTASLTISGLQAEDEADYYCGTFAGGSYYGVFGGGTKLTVL | – |
| 0.027 | 0.003 | – | – | – | – | Soidawürstle, Mouse IgG2a-PALALA (antibody, V domains shown, mouse IgG2a constant region with PALALA) VH: QVQLVQSGAEVRKPGSSVKVSCKASGYTFTSSYINWVRQAPGQGLEWMGTINPVSGSTSYAQKFQGRVTITADTSTSTAYMELSSLRSEDTAVYYCARGGWFDYWGQGTLVTVSS VL: QSALTQPRSVSGSPGQSVTISCTGTSSDVGSYNRVNWYQQHPGKAPKLMIYGVSKRESGVPDRFSGSKSGNTASLTISGLQAEDEADYYCGTFAGGRYYGVFGGGTKLTVL | – |
